Biological target: T1, membrane LAG3 (membrane-bound LAG3 expressed on immune cells) (human, UniProt P18627 23-525)
T1 sequence: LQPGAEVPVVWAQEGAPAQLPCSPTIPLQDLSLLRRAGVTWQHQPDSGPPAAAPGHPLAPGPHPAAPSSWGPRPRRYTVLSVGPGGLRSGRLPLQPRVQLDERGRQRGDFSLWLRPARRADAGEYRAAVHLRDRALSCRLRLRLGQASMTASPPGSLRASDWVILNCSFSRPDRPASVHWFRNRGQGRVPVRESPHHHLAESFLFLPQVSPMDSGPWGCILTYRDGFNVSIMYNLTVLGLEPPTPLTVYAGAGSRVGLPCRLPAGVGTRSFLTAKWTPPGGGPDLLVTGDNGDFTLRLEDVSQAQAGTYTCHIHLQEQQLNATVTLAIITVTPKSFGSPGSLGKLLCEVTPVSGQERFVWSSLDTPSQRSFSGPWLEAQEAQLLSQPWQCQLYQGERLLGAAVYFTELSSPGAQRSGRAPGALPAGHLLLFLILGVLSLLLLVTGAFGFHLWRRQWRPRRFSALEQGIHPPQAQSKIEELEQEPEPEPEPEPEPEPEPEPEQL
Experiment: statement in Example 2 (rationale for sLAG3 as target engagement marker); no assay described

B1: anti-LAG3 antibody Ab6 (antibody, human IgG4 S228P, kappa, V domains shown)
VH: QMQLVQSGPEVKKPGTSVKVSCKASGYTFTDYNVDWVRQARGQRLEWIGDINPNDGGTIYAQKFQERVTITVDKSTSTAYMELSSLRSEDTAVYYCARNYRWFGAMDHWGQGTTVTVSS
VL: DIVMTQTPLSLSVTPGQPASISCKASQSLDYEGDSDMNWYLQKPGQPPQLLIYGASNLESGVPDRFSGSGSGTDFTLKISRVEAEDVGVYYCQQSTEDPRTFGGGTKVEIKR
notes: The claims say two heavy and two light chains
  binding result: binds

Source: patent publication US20210347889A1 (Merck Sharp & Dohme, published 2021)
